Experimental data as given in publication PMC9603128, “Physiological, Biochemical, and Structural Bioinformatic Analysis of the Multiple Inositol Dehydrogenases from Corynebacterium glutamicum” (Microbiology Spectrum, 2022).

How the values were obtained:
Test in all cases: purified protein
Format in all cases: biochemical, Corynebacterium glutamicum
Conditions in all cases: 5 mM NAD+, pH 7.5, 100 mM potassium phosphate, 1 mM MgSO4, 30 °C, substrate 0.5 to 50 mM
purified protein [1] = substrate: O[C@H]1[C@H](O)[C@@H](O)[C@H](O)[C@@H](O)[C@@H]1O
purified protein [2] = substrate: O[C@H]1[C@H](O)[C@@H](O)[C@H](O)[C@@H](O)[C@H]1O
purified protein [3] = substrate: O[C@H]1[C@H](O)[C@H](O)[C@@H](O)[C@H](O)[C@H]1O

| Protein | Km (purified protein [1]) | Vmax (purified protein [1]) | kcat (purified protein [1]) | kcat/Km (purified protein [1]) | Km (purified protein [2]) | Vmax (purified protein [2]) | kcat (purified protein [2]) | kcat/Km (purified protein [2]) | Km (purified protein [3]) | Vmax (purified protein [3]) | kcat (purified protein [3]) | kcat/Km (purified protein [3]) |
| --- | --- | --- | --- | --- | --- | --- | --- | --- | --- | --- | --- | --- |
| OxiB (Corynebacterium glutamicum ATCC 13032) (protein, full length, C-terminal Strep-tag II, expressed in C. glutamicum MB001(DE3) from pPREx6-OxiB; StrepTactin and size exclusion) MTQQELRVAVIGAGMAGKAHAAGYRTASSIYSTTLPNIRLVSIADANVQLAEETAARFGFERFDTSWQAIVEADDIDVVSVVVANFLHREIVEALLASGKHVLCEKPLSDTIEDAEAMIEAAGRAATNGTIARIGLTYRRSPGVAHIRDLVQSGELGKVLHVTGHYWTDYGSNAQAPISWRYKGPNGSGALADVGSHLTYLAEFVAGSDFAAVRGGQLSTVITERPKPLGAIVGHEGGAVSDEYEAVENDDIASFSGSFIGGGTATLQVSRISQGHPNTLGFEVFCEKGSVLFDFRNSGEFKIFTPATSGDISQEAGYRTITIGPKHPYWRGGLAMDAPGVGIGQNEGFVFQARAFLEEIAGISEAESLPRCATLEEGLHNMQLIDAVSQSAAAGGETVAVPAAALIPANN | 28.8 ± 7.1 mM | 0.05 µmol/min/mg | 0.03 s⁻¹ | 1.03 ± 0.11 M⁻¹ s⁻¹ | 62.1 ± 12.5 mM | 5.8 µmol/min/mg | 4.2 ± 0.4 s⁻¹ | 69.1 ± 7.3 M⁻¹ s⁻¹ | – | – | – | – |
| OxiD (Corynebacterium glutamicum ATCC 13032) (protein, full length, C-terminal Strep-tag II, expressed in C. glutamicum MB001(DE3) from pPREx6-OxiD; StrepTactin and size exclusion) MTLRIALFGAGRIGHVHAANIAANPDLELVVIADPFIEGAQRLAEANGAEAVASPDEVFARDDIDGIVIGSPTSTHVDLITRAVERGIPALCEKPIDLDIEMVRACKEKIGDGASKVMLGFNRRFDPSFAAINARVANQEIGNLEQLVIISRDPAPAPKDYIAGSGGIFRDMTIHDLDMARFFVPNIVEVTATGANVFSQEIAEFNDYDQVIVTLRGSKGELINIVNSRHCSYGYDQRLEAFGSKGMLAADNIRPTTVRKHNAESTEQADPIFNFFLERYDAAYKAELATFAQGIRDGQGFSPNFEDGVIALELANACLESAQTGRTVTLNPANV | – | – | – | – | 19.6 ± 1.8 mM | 59 µmol/min/mg | 35.6 ± 1.4 s⁻¹ | 1830 ± 107 M⁻¹ s⁻¹ | 50.6 ± 8.7 mM | 25.5 µmol/min/mg | 15.4 ± 1.7 s⁻¹ | 308 ± 20 M⁻¹ s⁻¹ |
| IolG (Corynebacterium glutamicum ATCC 13032) (protein, full length, C-terminal Strep-tag II, expressed in C. glutamicum MB001(DE3) from pPREx6-IolG; StrepTactin and size exclusion) MSKSLRVGVVGAGAMGADHIDRINNRTSGAHISAIIEPDAARAAAAAEDAPGAQAFTRIEDAIAADAVDAVLIAVPGQFHEPVLVPALEAGLPILCEKPLTPDSESSLRIVELEQKLDKPHIQVGFMRRFDPEYNNLRKLVESGEAGELLMLRGLHRNPSVGESYTQSMLITDSVVHEFDVIPWLAGSRVVSVEVKYPKTSSLAHSGLKEPILVIMELENGVLVDVEMNVNIQFGYQVATEAVFEKGLARIGQPSGMQRWRDGEFLINEHTDFTTRFATAYDRQIQSWVDAVHEGTLVAGPNAWDGYLVALSCEAGVKALDGGVIPVDAAPRPDFYA | – | – | – | – | 60.9 ± 13.7 mM | 23.1 µmol/min/mg | 14 ± 1.9 s⁻¹ | 235 ± 23.4 M⁻¹ s⁻¹ | 61.93 ± 5.61 mM | – | 8.66 ± 0.54 s⁻¹ | 140 ± 7.4 M⁻¹ s⁻¹ |
| OxiE (Corynebacterium glutamicum ATCC 13032) (protein, full length, C-terminal Strep-tag II, expressed in C. glutamicum MB001(DE3) from pPREx6-OxiE; StrepTactin and size exclusion) MKNITIGMVGVGRIGRMHVANMLAVAETLKERDLNIEIVLADAMPGFAEQVGADMGVKAAASVDKLIEDGVDALFIATSTAGHVDVLRKGIAAKLPMFCEKPIASDVPESLNIIREIDAAGATVQVGHQRRFDLGYQEAKRRLDAGDLGWLHSLKAVSSDAFPPPVSYCATSGGLFRDVSLHDFDIIRWLTGQDIVEVYAKGSNNGDPEIGAVGDIDTGAALLTLADGTLATAIATRYNGAGHDVRLDVMGSKDSTIVGLDEKSAFASAEEGIDFPTGESHPTFAERFADAYKNECIAFVELILGERENPCTPADAVAAAIVADAAQLSLVTGEPVKIPTVREILEGSAQPVEVRALVPSA | 12.4 ± 0.8 mM | 13.4 µmol/min/mg | 8.5 ± 0.1 s⁻¹ | 689 ± 41.5 M⁻¹ s⁻¹ | 51.6 ± 3.6 mM | 3.1 µmol/min/mg | 3.9 ± 0.3 s⁻¹ | 76.7 ± 5.2 M⁻¹ s⁻¹ | 54.1 ± 8.0 mM | 0.005 µmol/min/mg | 0.003 s⁻¹ | 0.06 M⁻¹ s⁻¹ |
